Test results as given in patent US20260184774A1 (GENOME, published 2026).

Experiments:
Test in all cases: ELISA, coated CNTN4 domain sample, anti-human IgG Fc-HRP
[1] = biological target: T1, Human CNTN4 domain sample D1-5 (human, UniProt Q8IWV2 19-493, limits assumed)
T1 construct: domain: Domain 1 to Domain 5
T1 sequence (looked up): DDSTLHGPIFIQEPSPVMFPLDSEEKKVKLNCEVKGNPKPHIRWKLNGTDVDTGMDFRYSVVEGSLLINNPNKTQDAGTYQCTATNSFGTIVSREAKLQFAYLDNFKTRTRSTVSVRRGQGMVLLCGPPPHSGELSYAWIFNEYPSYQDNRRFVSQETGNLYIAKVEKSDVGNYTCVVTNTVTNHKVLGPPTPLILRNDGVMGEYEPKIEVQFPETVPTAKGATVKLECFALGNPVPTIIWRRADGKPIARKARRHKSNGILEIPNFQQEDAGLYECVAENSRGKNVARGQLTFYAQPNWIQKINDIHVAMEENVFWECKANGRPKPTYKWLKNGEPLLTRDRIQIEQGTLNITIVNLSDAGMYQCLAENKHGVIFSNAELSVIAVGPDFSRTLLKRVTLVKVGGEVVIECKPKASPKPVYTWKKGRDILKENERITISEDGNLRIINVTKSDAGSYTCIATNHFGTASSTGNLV
Procedure: (§1) 50 μL of the diluted secondary antibody (Anti-human IgG Fc-HRP) was distributed to each well. The wells were sealed with sealing tape and incubated at 37° C. for 1 hour. The wells were washed tree times after Sealing tape was removed.
(§2) 50 μL of ABTs were distributed in each well. The wells were incubated at room temperature for 30 minutes. The absorbance was detected at 405 nm by using Microplate reader.

[2] = biological target: T2, Human CNTN4 domain sample D1-9 (human, UniProt Q8IWV2 19-899, limits assumed)
T2 construct: domain: Domain 1 to Domain 9
T2 sequence (looked up): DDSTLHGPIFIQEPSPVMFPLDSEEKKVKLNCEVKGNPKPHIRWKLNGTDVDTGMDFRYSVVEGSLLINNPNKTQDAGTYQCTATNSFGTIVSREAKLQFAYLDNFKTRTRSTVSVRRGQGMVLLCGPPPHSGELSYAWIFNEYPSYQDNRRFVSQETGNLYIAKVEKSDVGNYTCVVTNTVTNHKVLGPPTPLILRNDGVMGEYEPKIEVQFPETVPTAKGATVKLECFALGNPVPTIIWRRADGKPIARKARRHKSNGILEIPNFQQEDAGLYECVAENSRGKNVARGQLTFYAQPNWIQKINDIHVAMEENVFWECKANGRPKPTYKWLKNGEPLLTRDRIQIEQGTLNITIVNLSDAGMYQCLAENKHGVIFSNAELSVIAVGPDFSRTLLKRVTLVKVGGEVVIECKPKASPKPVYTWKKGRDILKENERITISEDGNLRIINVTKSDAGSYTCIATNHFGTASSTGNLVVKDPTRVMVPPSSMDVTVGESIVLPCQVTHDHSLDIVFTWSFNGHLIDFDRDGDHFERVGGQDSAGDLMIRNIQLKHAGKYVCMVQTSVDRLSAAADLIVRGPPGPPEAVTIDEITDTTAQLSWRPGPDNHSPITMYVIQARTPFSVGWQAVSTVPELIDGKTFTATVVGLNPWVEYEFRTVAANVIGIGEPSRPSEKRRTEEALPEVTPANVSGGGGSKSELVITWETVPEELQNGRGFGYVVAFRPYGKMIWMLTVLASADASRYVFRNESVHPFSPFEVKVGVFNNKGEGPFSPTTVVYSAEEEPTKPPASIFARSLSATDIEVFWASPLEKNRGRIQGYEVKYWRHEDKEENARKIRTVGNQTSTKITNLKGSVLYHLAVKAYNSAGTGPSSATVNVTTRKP
Procedure: as §1, §2

[3] = biological target: T3, Human CNTN4 domain sample D1-7 (human, UniProt Q8IWV2 19-697, limits assumed)
T3 construct: domain: Domain 1 to Domain 7
T3 sequence (looked up): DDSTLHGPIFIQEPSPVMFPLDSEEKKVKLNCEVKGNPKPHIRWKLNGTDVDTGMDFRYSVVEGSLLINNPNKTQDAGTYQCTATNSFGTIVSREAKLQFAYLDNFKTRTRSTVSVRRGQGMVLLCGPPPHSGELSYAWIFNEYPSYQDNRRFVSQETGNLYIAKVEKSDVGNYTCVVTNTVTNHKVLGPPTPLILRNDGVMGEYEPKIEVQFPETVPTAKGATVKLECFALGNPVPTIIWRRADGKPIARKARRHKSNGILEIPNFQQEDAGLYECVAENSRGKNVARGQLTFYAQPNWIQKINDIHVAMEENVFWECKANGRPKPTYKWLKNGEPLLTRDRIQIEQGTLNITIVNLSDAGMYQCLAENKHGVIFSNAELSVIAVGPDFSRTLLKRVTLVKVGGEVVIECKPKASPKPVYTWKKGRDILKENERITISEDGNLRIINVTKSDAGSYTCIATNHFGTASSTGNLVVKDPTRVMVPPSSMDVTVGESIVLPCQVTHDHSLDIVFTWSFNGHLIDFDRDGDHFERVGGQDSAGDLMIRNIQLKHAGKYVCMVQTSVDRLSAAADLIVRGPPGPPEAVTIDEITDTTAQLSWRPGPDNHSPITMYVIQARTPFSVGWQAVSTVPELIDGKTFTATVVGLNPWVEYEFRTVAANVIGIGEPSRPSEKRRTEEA
Procedure: as §1, §2

[4] = biological target: T4, Human CNTN4 domain sample D1-6 (human, UniProt Q8IWV2 19-586, limits assumed)
T4 construct: domain: Domain 1 to Domain 6
T4 sequence (looked up): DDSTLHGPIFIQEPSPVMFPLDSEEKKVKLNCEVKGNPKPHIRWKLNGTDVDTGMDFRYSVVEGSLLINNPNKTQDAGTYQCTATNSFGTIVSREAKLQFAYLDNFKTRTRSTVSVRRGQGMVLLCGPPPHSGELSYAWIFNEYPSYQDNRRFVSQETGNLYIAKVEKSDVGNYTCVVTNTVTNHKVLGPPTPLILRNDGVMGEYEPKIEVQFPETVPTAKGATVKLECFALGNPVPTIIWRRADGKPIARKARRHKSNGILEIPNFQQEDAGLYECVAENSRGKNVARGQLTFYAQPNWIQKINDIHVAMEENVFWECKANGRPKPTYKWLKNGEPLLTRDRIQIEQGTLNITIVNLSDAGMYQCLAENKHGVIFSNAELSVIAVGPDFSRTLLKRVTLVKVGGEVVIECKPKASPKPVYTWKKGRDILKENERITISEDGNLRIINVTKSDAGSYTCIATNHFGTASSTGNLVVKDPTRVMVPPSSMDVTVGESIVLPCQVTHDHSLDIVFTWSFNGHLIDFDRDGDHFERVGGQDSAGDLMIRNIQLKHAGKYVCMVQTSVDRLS
Procedure: as §1, §2

[5] = biological target: T5, Human CNTN4 domain sample D1-8 (human, UniProt Q8IWV2 19-799, limits assumed)
T5 construct: domain: Domain 1 to Domain 8
T5 sequence (looked up): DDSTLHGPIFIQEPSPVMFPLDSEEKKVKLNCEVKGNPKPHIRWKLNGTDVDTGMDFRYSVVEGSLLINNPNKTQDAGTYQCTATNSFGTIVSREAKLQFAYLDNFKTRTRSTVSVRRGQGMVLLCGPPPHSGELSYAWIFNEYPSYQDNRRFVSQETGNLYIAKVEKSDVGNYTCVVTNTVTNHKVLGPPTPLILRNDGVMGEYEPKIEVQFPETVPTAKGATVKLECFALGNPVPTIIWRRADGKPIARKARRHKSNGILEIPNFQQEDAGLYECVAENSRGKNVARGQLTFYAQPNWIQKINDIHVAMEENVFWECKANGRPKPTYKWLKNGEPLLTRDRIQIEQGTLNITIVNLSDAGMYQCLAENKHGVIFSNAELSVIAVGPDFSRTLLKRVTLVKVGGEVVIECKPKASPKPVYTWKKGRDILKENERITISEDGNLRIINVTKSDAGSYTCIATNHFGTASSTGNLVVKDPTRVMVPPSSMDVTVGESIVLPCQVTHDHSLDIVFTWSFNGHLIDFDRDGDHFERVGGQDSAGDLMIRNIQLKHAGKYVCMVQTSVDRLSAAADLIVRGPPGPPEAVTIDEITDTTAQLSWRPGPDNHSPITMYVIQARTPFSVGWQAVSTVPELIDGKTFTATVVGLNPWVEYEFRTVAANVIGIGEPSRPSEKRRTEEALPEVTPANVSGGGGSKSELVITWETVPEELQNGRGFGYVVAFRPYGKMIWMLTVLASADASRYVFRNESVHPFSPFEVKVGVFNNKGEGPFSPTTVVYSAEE
Procedure: as §1, §2

[6] = biological target: T6, Human CNTN4 domain sample Full (Domain 1 to Domain 10) (human, UniProt Q8IWV2 19-1000, limits assumed)
T6 construct: domain: Domain 1 to Domain 10 (Ig1 to Ig6 and FN1 to FN4)
T6 sequence (looked up): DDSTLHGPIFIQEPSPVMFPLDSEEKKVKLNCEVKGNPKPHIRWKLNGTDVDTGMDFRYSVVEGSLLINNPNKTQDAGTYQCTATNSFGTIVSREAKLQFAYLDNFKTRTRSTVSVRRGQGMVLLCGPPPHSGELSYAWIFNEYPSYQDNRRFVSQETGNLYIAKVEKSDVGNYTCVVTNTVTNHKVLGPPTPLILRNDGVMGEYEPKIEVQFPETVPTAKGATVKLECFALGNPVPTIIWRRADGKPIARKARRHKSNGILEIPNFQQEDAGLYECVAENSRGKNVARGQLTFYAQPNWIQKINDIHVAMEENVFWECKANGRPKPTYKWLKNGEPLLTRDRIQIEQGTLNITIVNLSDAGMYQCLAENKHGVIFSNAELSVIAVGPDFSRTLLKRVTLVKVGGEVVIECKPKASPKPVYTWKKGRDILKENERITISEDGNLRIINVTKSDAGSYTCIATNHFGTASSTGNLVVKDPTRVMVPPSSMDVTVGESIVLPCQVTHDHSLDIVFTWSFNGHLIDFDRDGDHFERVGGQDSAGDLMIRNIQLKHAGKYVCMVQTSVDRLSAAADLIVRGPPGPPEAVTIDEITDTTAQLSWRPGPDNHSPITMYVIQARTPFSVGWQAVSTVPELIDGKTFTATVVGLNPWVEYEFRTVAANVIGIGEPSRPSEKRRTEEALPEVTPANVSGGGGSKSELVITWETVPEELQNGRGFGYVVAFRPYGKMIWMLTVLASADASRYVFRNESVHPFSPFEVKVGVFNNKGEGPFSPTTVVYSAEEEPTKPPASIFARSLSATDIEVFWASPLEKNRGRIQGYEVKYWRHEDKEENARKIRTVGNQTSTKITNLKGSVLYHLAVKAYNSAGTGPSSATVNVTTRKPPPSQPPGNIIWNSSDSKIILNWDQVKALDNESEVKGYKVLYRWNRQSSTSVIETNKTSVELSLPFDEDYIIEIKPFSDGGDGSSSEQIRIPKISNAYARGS
Procedure: as §1, §2

[7] = biological target: T7, Human CNTN4 domain sample D1-4 (human, UniProt Q8IWV2 19-400, limits assumed)
T7 construct: domain: Domain 1 to Domain 4
T7 sequence (looked up): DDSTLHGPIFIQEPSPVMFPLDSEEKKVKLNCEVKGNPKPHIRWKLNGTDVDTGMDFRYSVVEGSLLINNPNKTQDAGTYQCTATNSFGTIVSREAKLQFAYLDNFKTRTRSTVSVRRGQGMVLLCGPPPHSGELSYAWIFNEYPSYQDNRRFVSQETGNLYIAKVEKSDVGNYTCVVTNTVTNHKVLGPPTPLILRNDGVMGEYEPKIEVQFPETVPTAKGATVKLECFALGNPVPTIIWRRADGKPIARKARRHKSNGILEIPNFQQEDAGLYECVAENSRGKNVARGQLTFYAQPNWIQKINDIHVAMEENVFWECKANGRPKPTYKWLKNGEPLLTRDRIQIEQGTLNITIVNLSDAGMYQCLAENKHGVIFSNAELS
Procedure: as §1, §2

binding result [1]: no binding
binding result [2]: binds
binding result [3]: no binding
binding result [4]: no binding
binding result [5]: binds
binding result [6]: binds
binding result [7]: no binding
B1: Anti-CNTN4 chicken-human chimeric IgG4 antibody AB1 (antibody, V domains shown)
VH: AVTLDESEGGLQTPGGALSLVCKASGFTFSSFNMFWVRQAPGKGLEYVAEISGGGGSTWYAPAVKGRATISRDNGQSTVRLQLNNLRAEDTGTYYCAKSADTWSYGAATIDAWGHGTEVIVSS
VL: ALTQPSSVSANLGETVKITCSGSSGSYGWYQQKSPGSAPVTLIYDNTNRPSDIPSRFSGSGSGSTGTLTITGVRAEDEAVYYCGGYDGSTDVFGAGTTLTVL
notes: Chicken variable domains of scFv AB1 on human IgG4 constant regions; It was purified on Kappa select resin, so the light chain is kappa; also called anti-CNTN4 antibody AB1; Anti-CNTN4 129 chimeric IgG4 antibody
